The data set has as its system recombinant human tau, largest isoform (2N4R).

The values that follow come from patent US8822171.

Turning to “cyclic AMP-dependent protein kinase (PKA)”, the “New sites identified in recombinant tau (phosphorylated residues, numbered on 441-residue human tau)” value (“New sites identified in recombinant tau” below) was 210, (217/220), 258, 352, (412/413) and the “in vitro phosphorylation of recombinant tau, sites identified by LC/MS/MS” value (“in vitro phosphorylation” for short) is given as “PKA found 5 new sites making a total of 24 in all”.
In the case of casein kinase 2 (CK2), the “New sites identified in recombinant tau” value is recorded as “(52/56), 199, 386, 400, (412/413/414/416, 1 site)” and the “in vitro phosphorylation” value is listed as “CK2 found 5 new sites making a total of 8 in all”.
In the case of glycogen synthase kinase 3β (GSK-3β), the “New sites identified in recombinant tau” value is 149, 220, 237, 241, 245, 258, 285, 289, 305, 352, 373, (409/412/413/414/416, 2 sites of which 1 or 2 are new) and the “in vitro phosphorylation” value is listed as “GSK-3 found 12 new sites making a total of 38 in all”.
